Laboratory results published in article doi:10.1101/2020.10.02.323899.

How the values were obtained:
[1] = biological target: actin from Xenopus laevis oocytes (Xenopus laevis (endogenous in oocytes)) (UniProt O93400); test: SEC-MALS + AUC
[2] = biological target: Xenopus cyclase-associated protein 1 (Xenopus laevis (endogenous in oocytes)); test: SEC-MALS + AUC

“Xenopus cyclase-associated protein 1 (natural protein)” was tested, and the stoichiometry N (XCAP1 per actin (4:4)) [1] was 1 and the stoichiometry N (XCAP1 molecules in the complex) [2] was 4.
